In patent US20220363769A1 (SORRISO PHARMACEUTICALS, published 2022):
Where a chain is given by its changes, count along the chain named. Names and notes keep the numbering of the source.

Tests used:
[1] = target: T1, recombinant human IL-7Rα-His6-Fc (human, UniProt P16871 21-239); assay: IL-7/IL-7R neutralisation ELISA; inhibition of IL-7 binding to IL-7R
T1 construct: also called hIL-7R; not shown: His6 tag; Fc (captured by anti-human IgG Fc)
T1 chain: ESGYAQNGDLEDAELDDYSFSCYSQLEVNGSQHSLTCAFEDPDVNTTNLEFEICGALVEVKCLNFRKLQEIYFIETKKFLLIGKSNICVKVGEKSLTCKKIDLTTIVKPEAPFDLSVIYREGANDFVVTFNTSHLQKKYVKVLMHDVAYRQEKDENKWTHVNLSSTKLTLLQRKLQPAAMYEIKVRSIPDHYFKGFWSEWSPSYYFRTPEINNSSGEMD

[2] = target: T1, recombinant human IL-7Rα-His6-Fc; assay: Biacore; IL-7Rα-His6-Fc captured by anti-human IgG Fc, ICVD flowed over
TNFR-2 = target: T2, TNFR-2 (human, UniProt P20333 23-257); assay: competition ELISA: ID-A40U premixed with serially diluted soluble receptor, then added to plate-coated human IL-7Rα; bound ICVD detected [left panel]
T2 sequence (looked up): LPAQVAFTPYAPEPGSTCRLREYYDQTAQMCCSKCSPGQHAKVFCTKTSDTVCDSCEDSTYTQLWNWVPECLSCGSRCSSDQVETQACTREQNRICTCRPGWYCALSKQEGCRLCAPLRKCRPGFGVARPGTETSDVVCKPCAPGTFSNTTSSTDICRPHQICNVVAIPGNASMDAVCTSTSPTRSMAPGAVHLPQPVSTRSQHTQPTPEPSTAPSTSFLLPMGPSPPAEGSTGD
Protocol: (§1) 96-well plates were coated with 0.5 μg/mL recombinant human IL-7Rα His₆-Fc +5 μg/mL BSA and then blocked. 0.5 nM of ICVD was mixed 1:1 with the test compounds of choice serially diluted in 1% BSA, then incubated for 30 minutes to allow binding before adding to the IL-7Rα coated plates. Following 2 hours incubation, bound ICVD was detected with 50 uL/well 1/20000 anti-FLAG-HRP Goat antibody (GeneTex, GTX21238), and the level of neutralisation of ICVD-IL-7Rα binding by the test compounds was determined.

IL-9R = target: T3, IL-9R (human, UniProt Q01113 41-270, limits assumed); assay: as above
T3 sequence (looked up): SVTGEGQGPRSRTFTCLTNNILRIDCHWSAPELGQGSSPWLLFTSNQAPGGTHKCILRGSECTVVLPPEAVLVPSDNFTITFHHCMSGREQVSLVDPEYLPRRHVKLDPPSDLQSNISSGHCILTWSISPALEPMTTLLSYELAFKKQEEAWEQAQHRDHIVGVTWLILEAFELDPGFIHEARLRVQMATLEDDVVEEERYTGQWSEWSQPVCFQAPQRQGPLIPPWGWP
Protocol: as §1

IL-6R = target: T4, IL-6R (human, UniProt P08887 20-358, limits assumed); assay: as above
T4 sequence (looked up): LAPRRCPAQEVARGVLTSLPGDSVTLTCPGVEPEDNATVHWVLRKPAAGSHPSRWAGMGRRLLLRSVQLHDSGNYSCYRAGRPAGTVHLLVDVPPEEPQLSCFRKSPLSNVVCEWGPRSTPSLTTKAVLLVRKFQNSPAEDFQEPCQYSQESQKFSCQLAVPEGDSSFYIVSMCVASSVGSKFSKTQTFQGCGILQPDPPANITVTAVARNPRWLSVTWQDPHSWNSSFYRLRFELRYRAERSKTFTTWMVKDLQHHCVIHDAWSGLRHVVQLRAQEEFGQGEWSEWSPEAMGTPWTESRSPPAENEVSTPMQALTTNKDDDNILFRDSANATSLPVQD
Protocol: as §1

human IL-12Rβ1 = target: T5, human IL-12Rβ1 (human, UniProt P42701 24-545, limits assumed); assay: competition ELISA: ID-A40U premixed with serially diluted soluble receptor, then added to plate-coated human IL-7Rα; bound ICVD detected [right panel]
T5 construct: also called hIL-12Rβ1; IL-12Rα1 (as printed in the result sentence)
Protocol: as §1

IL-21R = IL-21R (human, UniProt Q9HBE5 20-232, limits assumed); assay: as above
IL-21R, sequence (Q9HBE5 20-232 limits assumed): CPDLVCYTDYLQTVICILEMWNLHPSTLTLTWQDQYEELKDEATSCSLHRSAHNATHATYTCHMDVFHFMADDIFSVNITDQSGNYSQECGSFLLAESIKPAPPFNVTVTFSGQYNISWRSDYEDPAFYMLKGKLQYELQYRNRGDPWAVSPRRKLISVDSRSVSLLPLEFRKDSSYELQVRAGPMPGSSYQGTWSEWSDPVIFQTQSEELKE
Protocol: as §1

[3] = target: T1, recombinant human IL-7Rα-His6-Fc; assay: IL-7/IL-7Rα-His6-Fc ELISA; inhibition of IL-7 binding to IL-7R
cynomolgus monkey IL-7Rα = target: T6, cynomolgus monkey IL-7Rα (cynomolgus monkey, UniProt Q38IC7 21-239, limits assumed); assay: competition ELISA: ID-A40U premixed with serially diluted soluble IL-7R, then added to plate-coated human IL-7Rα-His6-Fc; bound ICVD detected
T6 construct: also called cynomolgus IL-7Rα
T6 sequence: T1 chain with N64S, E93G, T159M, K174N, A178E, S215P
Protocol: as §1

murine IL-7Rα = target: T7, murine IL-7Rα (murine, UniProt P16872 21-239); assay: as above
T7 construct: also called mouse IL-7R
T7 sequence (looked up): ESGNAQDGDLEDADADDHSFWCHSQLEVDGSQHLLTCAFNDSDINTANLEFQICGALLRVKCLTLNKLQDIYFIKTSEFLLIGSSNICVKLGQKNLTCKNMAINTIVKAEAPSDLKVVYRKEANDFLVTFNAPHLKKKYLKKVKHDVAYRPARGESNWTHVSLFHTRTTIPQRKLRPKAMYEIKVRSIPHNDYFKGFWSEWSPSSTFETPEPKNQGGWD
Protocol: as §1

B1: ID-A40U (VHH)
VHH: EVQLVESGGGLVQAGGSLRLSCESSISTFSSDAMGWFRQAPGKEREFLAAIGWSGAVTHYSDSVKGRFTISRDNAKNTVYLQMNSLRAEDTGRYYCAEDYDTDVWQYWGQGTQVTVSS
notes: V7R-2E9 with Q65K, K87R, S88A; produced in E. coli; also called A40U-F/H; not shown: Flag-His6 tag
With B1 the EC50 [1] was 0.544 nM, the Kd [2] was 0.078 nM and the binding result (TNFR-2) was “no binding (tested: 100 ng/mL)”. B1: no binding (tested: 100 ng/mL) (IL-9R); no binding (tested: 100 ng/mL) (IL-6R); no binding (tested: 100 ng/mL) (human IL-12Rβ1). The binding result (IL-21R) was “no binding (tested: 100 ng/mL)”, the EC50 [3] was 0.544 nM and the binding result (cynomolgus monkey IL-7Rα) was “binds”. B1: no binding (tested: 100 ng/mL) (murine IL-7Rα).
